Consider two molecules from article PMC2606091 (Cell, 2008).

One series deals with Hsp33 (Escherichia coli) (UniProt P0A6Y5). The note with it: cited from earlier work.
The series “AUC” concerns the molecule itself. Description: AUC.

On to Hsp33 (from UniProt P0A6Y5), for which the Kd – broadly, the concentration at which binding is half-saturated – with Hsp33 (Escherichia coli) is 590 nM.

B1: Hsp33 oxidised and activated with a 10-fold molar excess of HOCl (Hsp33_(HOCl)) (natural protein)
chain: MPQHDQLHRYLFENFAVRGELVTVSETLQQILENHDYPQPVKNVLAELLVATSLLTATLKFDGDITVQLQGDGPMNLAVINGNNNQQMRGVARVQGEIPENADLKTLVGNGYVVITITPSEGERYQGVVGLEGDTLAACLEDYFMRSEQLPTRLFIRTGDVDGKPAAGGMLLQVMPAQNAQQDDFDHLATLTETIKTEELLTLPANEVLWRLYHEEEVTVYDPQDVEFKCTCSRERCADALKTLPDEEVDSILAEDGEIDMHCDYCGNHYLFNAMDIAEIRNNASPADPQVH
modifications: two intramolecular disulfide bonds (Cys232-Cys234; Cys265/Cys268 fully oxidised) after HOCl treatment
Regarding B1, in the series “AUC”, binding was characterised by a dissociation constant (Kd) of 570 nM and the stoichiometry N – broadly, the number of molecules, sites or subunits per partner or assembly – came to 2.
